Patent publication US20030148956A1 (PROCTER AND GAMBLE, published 2003)
Ends that are not written are not given here.

T1: corticotropin releasing factor 2 receptor
T1 sequence (Q13324 whole entry, species assumed, looked up): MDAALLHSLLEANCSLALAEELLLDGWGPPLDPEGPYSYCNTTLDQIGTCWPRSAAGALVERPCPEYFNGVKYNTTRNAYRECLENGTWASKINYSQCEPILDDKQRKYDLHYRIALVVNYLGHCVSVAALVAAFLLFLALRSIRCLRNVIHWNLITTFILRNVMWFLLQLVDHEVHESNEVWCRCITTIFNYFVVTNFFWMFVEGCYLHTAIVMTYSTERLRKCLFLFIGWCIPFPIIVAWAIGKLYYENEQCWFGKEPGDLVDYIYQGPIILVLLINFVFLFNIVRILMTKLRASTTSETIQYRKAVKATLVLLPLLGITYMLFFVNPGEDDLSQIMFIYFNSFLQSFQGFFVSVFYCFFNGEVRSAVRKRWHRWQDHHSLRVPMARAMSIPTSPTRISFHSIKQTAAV


Assays:
[1] = target: T1, corticotropin releasing factor 2 …; experiment: cell-based or functional assay
[2] = target: corticotropin releasing factor 1 receptor; experiment: cell-based or functional assay

CRF2R EC50 [1] [nM] | CRF2R Emax % [1] [%] | CRF1R EC50 [2] [nM] | CRF1R Emax % [2] [%] | Binder
10.2 | 100 | 1000 | 46 | DNPSLSIDVPLFLLRTLLELEKTQSQRERAEQNARIFARV-NH2 [SEQ ID NO 385]
8.7 | 96 | 1000 | 78.2 | DNPSLSIDVPFFLLRTLLELEKTQSQRERAEQNARIFARV-NH2 [SEQ ID NO 386]
17.9 | 100 | 1000 | 50.1 | DNPSLSIDVPLYLLRTLLELEKTQSQRERAEQNARIFARV-NH2 [SEQ ID NO 387]
74.3 | 60 | 100 | 4 | IVLSLDVVIGLLQILLEQARARAAREQATTNARILARV-NH2 [SEQ ID NO 214]
7.1 | 97.3 | 1000 | 70.3 | DNPSLSIDVPLLLLRTLLELEKTQSQRERAEQNARIFARV-NH2 [SEQ ID NO 384]
21.3 | 100 | 445 | 100 | ZGPPISIDLPHQLLRKMIEIEKQEKEKQQAANNRLLLDTI (C-terminal amide) [SEQ ID NO 212]
3 | 92 | 48.1 | 81 | ZGPPISIDLPFFLLRKMIEIEKQEKEKQQAANNRLLLDTI (C-terminal amide) [SEQ ID NO 223]
46.1 | 95 | 1000 | 11 | ZGPPISIDLPTYLLRKMIEIEKQEKEKQQAANNALLLATI (C-terminal amide) [SEQ ID NO 233]
5.9 | 100 | 94 | 100 | ZGPPISIDLPFYLLRKMIEIEKQEKEKQQAANNALLLATI (C-terminal amide) [SEQ ID NO 231]
33.6 | 95 | 918 | 18 | ZGPPISIDLPQYLLRKMIEIEKQEKEKQQAANNALLLATI (C-terminal amide) [SEQ ID NO 227]
10.3 | 100 | 298 | 100 | ZGPPISIDLPFHLLRKMIEIEKQEKEKQQAANNALLLATI (C-terminal amide) [SEQ ID NO 229]
7.8 | 98 | 80.9 | 100 | ZGPPISIDLPHFLLRKMIEIEKQEKEKQQAANNRLLLDTI (C-terminal amide) [SEQ ID NO 219]
9.4 | 100 | 384 | 95 | ZGPPISIDLPAFLLRKMIEIEKQEKEKQQAANNRLLLDTI (C-terminal amide) [SEQ ID NO 222]
8.5 | 100 | 236 | 100 | ZGPPISIDLPQFLLRKMIEIEKQEKEKQQAANNRLLLDTI (C-terminal amide) [SEQ ID NO 221]
14.2 | 100 | 1000 | 13 | ZGPPISIDVPYWLLRKVIEIEKQEKEKQQAANNARLLDTI (C-terminal amide) [SEQ ID NO 372]
12.7 | 99 | 1000 | 27 | ZGPPISIDVPLQLLRKVIEIEKQEKEKQQAANNARLLARI (C-terminal amide) [SEQ ID NO 381]
11.5 | 100 | 1000 | 22 | ZGPPISIDVPYQLLRKVIEIEKQEKEKQQAANNARLLARI (C-terminal amide) [SEQ ID NO 375]
4 | 100 | 188 | 100 | ZGPPISIDLPYWLLRKMIEIEKQEKEKQQAANNRLLLDTI (C-terminal amide) [SEQ ID NO 215]
19.2 | 83 | 1000 | 25 | ZGPPISIDVPYHLLRKVIEIEKQEKEKQQAANNARLLARI (C-terminal amide) [SEQ ID NO 377]

CRF2R EC50 [1] [nM] | CRF2R Emax % [1] [%] | CRF1R EC50 [2] [nM] | CRF1R Emax % [2] [%] | Binder
8.1 | 100 | 219 | 100 | ZGPPISIDLPFYLLRKMIEIEKQEKEKQQAANNALLLDTI (C-terminal amide) [SEQ ID NO 230]
7.6 | 100 | 315 | 95 | ZGPPISIDLPYYLLRKMIEIEKQEKEKQQAANNALLLDTI (C-terminal amide) [SEQ ID NO 226]
9.9 | 90 | 49.8 | 98 | ZGPPISIDLPWWLLRKMIEIEKQEKEKQQAANNRLLLDTI (C-terminal amide) [SEQ ID NO 216]
4.8 | 96 | 98.4 | 100 | ZGPPISIDLPLWLLRKMIEIEKQEKEKQQAANNRLLLDTI (C-terminal amide) [SEQ ID NO 218]
9.31 | 96 | 1000 | 55 | ZGPPISIDVPFQLLRKVIEIEKQEKEKQQAANNARLLARI (C-terminal amide) [SEQ ID NO 383]
22.3 | 99 | 1000 | 76 | ZGPPISIDLPQWLLRKMIEIEKQEKEKQQAANNRLLLDTI (C-terminal amide) [SEQ ID NO 213]
70.5 | 94 | 1000 | 8 | ZGPPISIDVPIYLLRKVIEIEKQEKEKQQAANNARLLARI (C-terminal amide) [SEQ ID NO 379]
19 | 100 | 1000 | 16 | ZGPPISIDVPLQLLRKVIEIEKQEKEKQQAANNARLLDTI (C-terminal amide) [SEQ ID NO 380]
4.8 | 89 | 220 | 97 | ZGPPISIDLPYYLLRKMIEIEKQEKEKQQAANNALLLATI (C-terminal amide) [SEQ ID NO 225]
14.9 | 100 | 1000 | 36 | ZGPPISIDVPYYLLRKVIEIEKQEKEKQQAANNARLLARI (C-terminal amide) [SEQ ID NO 378]
4.1 | 98 | 63.6 | 81 | ZGPPISIDLPYFLLRKMIEIEKQEKEKQQAANNRLLLDTI (C-terminal amide) [SEQ ID NO 220]
15.8 | 91 | 1000 | 11 | ZGPPISIDVPYQLLRKVIEIEKQEKEKQQAANNARLLDTI (C-terminal amide) [SEQ ID NO 374]
4.7 | 95 | 94.7 | 100 | ZGPPISIDLPFWLLRKMIEIEKQEKEKQQAANNRLLLDTI (C-terminal amide) [SEQ ID NO 217]
45.3 | 100 | 1000 | 7 | ZGPPISIDLPTYLLRKMIEIEKQEKEKQQAANNALLLDTI (C-terminal amide) [SEQ ID NO 232]
26.9 | 100 | 1000 | 27 | ZGPPISIDLPQYLLRKMIEIEKQEKEKQQAANNALLLDTI (C-terminal amide) [SEQ ID NO 224]
39.5 | 100 | 1000 | 8 | ZGPPISIDVPFQLLRKVIEIEKQEKEKQQAANNARLLDTI (C-terminal amide) [SEQ ID NO 382]
7.1 | 100 | 276 | 100 | ZGPPISIDLPFHLLRKMIEIEKQEKEKQQAANNALLLDTI (C-terminal amide) [SEQ ID NO 228]
11.5 | 100 | 1000 | 9 | ZGPPISIDVPYWLLRKVIEIEKQEKEKQQAANNARLLARI (C-terminal amide) [SEQ ID NO 373]
52.5 | 100 | 1000 | 8 | ZGPPISIDVPYHLLRKVIEIEKQEKEKQQAANNARLLDTI (C-terminal amide) [SEQ ID NO 376]
